From patent publication US20150158934A1 (UCL BUSINESS, published 2015)
Residue numbers refer to the chain shown, from its start.

B1: L82B4F (VHH)
VHH: EVQLVESGGGLVQAGGSLRLSCAASGFTSDDYAIGWFRRAPGKEREGVSYISIEDGSTYSADSVKGRFTISSDYAKNTVYLQMNGLKPEDTAVYYCAAAILGDSVRWLQEYDYDYWGQGTQVTVSS
notes: Family member of L81H9; tags not written into the chain
B2: L91F10 (VHH)
VHH: EVQLVESGGGLVQPGGSLTLSCVASGFTLDGYAIGWFRQAPGKEVESVSCITGRHGTIYYADSVMGRFTISRDNAKSTVYLQMNSLKPEDTAVYYCAADGFDTPCVAGTDWQYDYWGQGTQVTVSS
notes: Purified by IMAC; tags not written into the chain
B3: L8Cj3 (VHH)
VHH: EVQLVESGGGLVQAGGFLRLSCELRGSIFNQYAMAWFRQAPGKEREFVAGMGAVPHYGEFVKGRFTISRDNAKSTVYLQMSSLKPEDTAIYFCARSKSTYISYNSNGYDYWGRGTQVTVSS
notes: 207 chosen because J3r is said to carry S82aN against L8Cj3; also called L8CjJ3; L9Cj3
B4: L91B5 (VHH)
VHH: EVQLVESGGGLVQPGGSLRLSCAASGATFDDYAIGWFRQAPGKEREGVSYIGCNDGATYYAGSVKGRFTISCDYAKNTVYLQMNSLKPEDTAVYYCAAAAQWATIRWIHEYDYNIWGQGTQVTVSS
notes: Purified by IMAC
B5: L91H9 (VHH)
VHH: B4 VHH with P14A, A24V, A57S, N114D, I115T
notes: as for B2
B6: L92E7 (VHH)
VHH: EVQLVESGGGLVQPGGSLRLSCAASGNIVSIDAAGWFRQAPGKQREPVATILTGGATNYADSVKGRFTISRDNAKNTVYLQMSSLKPEDTAVYYCYAPMIYYGGRYSDYWGQGTQVTVSS
notes: as for B2
B7: L91C2 (VHH)
VHH: EVQLVESGGGLVQPGGSLRLSCAASGFTLDGYAIGWFRQAPGKEREAISCITTAGTIYYADSVKGRVTISRDNAKNTVYLQMNSLKPEDTAVYLCAADGFDTPCVAGTDWGYDYEGQGTQVTVSS
notes: as for B2
B8: mAb 2G12 (antibody, V domains shown)
VH: EVQLVESGGGLVKAGGSLILSCGVSNFRISAHTMNWVRRVPGGGLEWVASISTSSTYRDYADAVKGRFTVSRDDLEDFVYLQMHKMRVEDTAIYYCARKGSDRLSDNDPFDAWGPGTVVTVSP
VL: DVVMTQSPSTLSASVGDTITITCRASQSIETWLAWYQQKPGKAPKLLIYKASTLKTGVPSRFSGSGSGTEFTLTISGLQFDDFATYHCQHYAGYSATFGQGTRVEIKR

These binders were tested against T1, gp140UG37 (subtype A), gp140 envelope glycoprotein from the HIV-1 group M A-clade isolate 92UG037 (HIV-1) (assay: SPR).
T1 construct: also called UG037 gp140/420 (A); gp140-UG037
B1 was tested, and the Kd was 0.0031 nM, the koff was 3.25e-08 s⁻¹ and the kon was 10500 M⁻¹ s⁻¹.
B2 showed a Kd of 3.98 nM, a koff of 0.00012 s⁻¹ and a kon of 29300 M⁻¹ s⁻¹.
Binder B3 has a Kd of 0.00702 nM, a koff of 5.48e-08 s⁻¹ and a kon of 7800 M⁻¹ s⁻¹.
Binder B4 has a Kd of 0.174 nM.
B5 gave a Kd of 0.0102 nM, a koff of 9.81e-08 s⁻¹ and a kon of 9610 M⁻¹ s⁻¹.
With B6 the Kd was 11.2 nM, the koff was 0.00025 s⁻¹ and the kon was 22200 M⁻¹ s⁻¹.

Each binder was assayed against T2, CA018 gp140/420 (A/G) (HIV-1) (assay: SPR).
T2 construct: also called gp120 of CA18
Binder B1 has a Kd of 3500 nM, a koff of 0.00298 s⁻¹ and a kon of 850 M⁻¹ s⁻¹.
For B2, the Kd was 1.18 nM, the koff was 6.94e-05 s⁻¹ and the kon was 58800 M⁻¹ s⁻¹.
B3 showed a Kd of 8.86 nM, a koff of 3.98e-05 s⁻¹ and a kon of 4490 M⁻¹ s⁻¹.
With B4 the Kd was 15.6 nM.
With B5 the Kd was 321 nM, the koff was 0.428 s⁻¹ and the kon was 1.33e+06 M⁻¹ s⁻¹.
Binder B6 has a Kd of 7 nM, a koff of 0.00013 s⁻¹ and a kon of 18000 M⁻¹ s⁻¹.

What follows are binders tested against T3, gp120IIIB (subgroup B) (HIV-1, UniProt P04578 33-511) (assay: SPR).
T3 construct: it is not tied to this reagent; also called IIIB gp120 (B)
For B1, the Kd was 0.0315 nM, the koff was 0.000734 s⁻¹ and the kon was 2.3e+07 M⁻¹ s⁻¹.
B5 gave a Kd of 4.11 nM, a koff of 0.000711 s⁻¹ and a kon of 173000 M⁻¹ s⁻¹.
Binder B6 has a Kd of 4.42 nM, a koff of 0.00077 s⁻¹ and a kon of 174000 M⁻¹ s⁻¹.
B7 gave a Kd of 2.01 nM, a koff of 0.00025 s⁻¹ and a kon of 122000 M⁻¹ s⁻¹.

These binders were tested against gp120IIIB (subgroup B) (HIV-1, UniProt P04578 33-511) (assay: SPR).
With B8 the Kd was 1.91 nM, the koff was 0.000314 s⁻¹ and the kon was 165000 M⁻¹ s⁻¹.

These binders were tested against T4, gp140CN54 (subtype B'/C), gp140 envelope glycoprotein from the HIV-1 group M CRF07-B/C-clade isolate 97CN54 (HIV-1) (assay: SPR).
T4 construct: also called CN54 gp140/420 (C); CN54 gp140 Env
B2 showed a Kd of 0.0771 nM, a koff of 7.12e-07 s⁻¹ and a kon of 9230 M⁻¹ s⁻¹.
Binder B4 has a Kd of 0.00127 nM.
B5 was tested, and the Kd was 0.0625 nM, the koff was 1.1e-06 s⁻¹ and the kon was 17600 M⁻¹ s⁻¹.
B6 was tested, and the Kd was 4.46 nM, the koff was 0.00015 s⁻¹ and the kon was 33200 M⁻¹ s⁻¹.
